Experimental data taken from patent publication US20170355730A1.
Starred links: 1 amine or outer side, 2 acyl side, 3 side chain; linkers in the order of their positions; H or OH if unused. Non-standard residues stand in square brackets, D forms with d. Primed or numbered codes have the meaning given here. No end group written: not given here. Trimesoyl = O=C(c1cc(C(=O)[*:2])cc(C(=O)[*:3])c1)[*:1]; Phe(4-F) = N[C@@H](Cc1ccc(F)cc1)C(=O)O; dPhe(4-F) = N[C@H](Cc1ccc(F)cc1)C(=O)O; 2Nal = N[C@@H](Cc1ccc2ccccc2c1)C(=O)O; Pip′ = L-homoproline (pipecolyl); Dap = NC[C@H](N)C(=O)O

Assays:
[1] = target: Pin1 (Example 6, construct not stated) (human) (UniProt Q13526); test: FA competition; competitor probe FITC-labeled peptide 1 (100 nM), Pin1 400 nM
[2] = target: Pin1 (Example 6, construct not stated) (human) (UniProt Q13526); test: cell-based or functional assay
[3] = target: bovine serum albumin (bovine) (UniProt P02769); test: binding test against a panel of arbitrarily selected proteins
bovine serum albumin (bovine), sequence (P02769 25-607 limits assumed): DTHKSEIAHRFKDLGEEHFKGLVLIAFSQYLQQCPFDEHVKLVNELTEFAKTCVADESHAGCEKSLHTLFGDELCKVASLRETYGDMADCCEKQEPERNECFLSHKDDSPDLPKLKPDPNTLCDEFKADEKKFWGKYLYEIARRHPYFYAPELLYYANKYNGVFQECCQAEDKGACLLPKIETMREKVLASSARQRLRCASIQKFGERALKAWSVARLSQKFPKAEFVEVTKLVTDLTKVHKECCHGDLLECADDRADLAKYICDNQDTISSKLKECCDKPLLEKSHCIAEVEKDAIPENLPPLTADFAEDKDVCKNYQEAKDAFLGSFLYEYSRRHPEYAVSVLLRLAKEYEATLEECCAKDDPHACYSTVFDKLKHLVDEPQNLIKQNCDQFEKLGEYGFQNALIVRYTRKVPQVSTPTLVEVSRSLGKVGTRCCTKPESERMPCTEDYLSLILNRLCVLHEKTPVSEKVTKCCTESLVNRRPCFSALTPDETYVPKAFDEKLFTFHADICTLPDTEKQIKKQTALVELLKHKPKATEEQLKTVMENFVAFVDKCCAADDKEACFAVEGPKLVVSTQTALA

[4] = target: Pin1 (Example 6, construct not stated) (human) (UniProt Q13526); test: fluorescence anisotropy

B1: peptide 37 (Table 18) (peptide)
peptide: Trimesoyl-[dPhe(4-F)][Phe(4-F)][dT][Pip′][2Nal]RA[dF][Dap]F[2Nal]RRRR[Dap]K
modifications: linker (positions not given here) via Trimesoyl; not fully specified (bridges); printed as bicyclo[Tm-(D-4-Fpa-Fpa-D-Thr-Pip-Nal-Arg-Ala-D-Phe)-Dap-(Phe-Nal-Arg-Arg-Arg-Arg-Dap)]-Lys
Q: B1 was tested. Which IC50 [1] did it give?
A: Its IC50 is 190 nM.

Q: And the IC50 of HeLa cell growth (MTT assay) [2]?
A: Its IC50 of HeLa cell growth (MTT assay) is 1000 nM.

Q: What about the IC50 of Pin1 catalytic activity toward Suc-Ala-Glu-Pro-Phe-pNA [2] of the same binder?
A: The IC50 of Pin1 catalytic activity toward Suc-Ala-Glu-Pro-Phe-pNA was 170 nM.

Q: And the PML protein level in HeLa cells (western blot), 0.2 µM inhibitor [2]?
A: The PML protein level in HeLa cells (western blot), 0.2 µM inhibitor was 1.8 fold.

Q: And the PML protein level in HeLa cells (western blot), plateau at ˜1 µM inhibitor [2]?
A: The PML protein level in HeLa cells (western blot), plateau at ˜1 µM inhibitor was 3.3 fold.

Q: What about the Kd [3] of the same binder?
A: Its Kd is 20000 nM.

Q: And the Kd [4]?
A: Its Kd is 120 nM.
